Consider 4 molecules from US20190256610A1 (NATIONAL UNIVERSITY CORPORATION HOKKAIDO UNIVERSITY, published 2019).

Experiment [1] has as its target T1, human Eva1 protein (human, UniProt O60487 27-150, limits assumed).
T1 construct: Soluble analyte in the SPR work and partner in the crystal; it calls it 'the antigen, that is, the Eva1 protein'; also called human-derived Eva1 protein; hEva1
T1 sequence: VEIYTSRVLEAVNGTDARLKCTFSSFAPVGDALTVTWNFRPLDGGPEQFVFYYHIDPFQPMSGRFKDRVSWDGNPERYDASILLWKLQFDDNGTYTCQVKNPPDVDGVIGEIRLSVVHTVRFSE
Put plainly: SPR (Biacore), as for the mouse antibodies. The text has this:
(§1) To select hybridomas for producing antibodies having a higher antigen affinity from the 28 hybridomas, a surface plasmon resonance assay system Biacore was used to calculate the KD value and so forth of each antibody (hereinafter also referred to as “candidate antibody”). Concretely, first, an antibody capable of capturing mouse IgG was immobilized on a dextran-coated sensor chip (CMS, manufactured by GE health care). Then, this antibody captured each candidate antibody on the sensor chip. Subsequently, the antigen, that is, the Eva1 protein was flowed. Note that, in flowing the antigen, a solution of 10 mM-Tris-HCl (pH 7.5), 150 mM-NaCl, and 3 mM-EDTA (pH 8.0) was used. Moreover, as a solution for dissociating the antigen from the candidate antibody (captured candidate-antibody resuscitation solution), a 10 mM glycine solution (pH 1.7) was used. Thus, using these solutions, the binding reaction and the dissociation reaction between each candidate antibody and the antigen were detected with Biacore, and analyzed using the attached software.
Further, the binding reaction and the dissociation reaction between the B2E5-48 chimeric antibody and the antigen were detected with Biacore as in the case of the mouse antibodies.

In experiment [2] the target is T2, human Eva1 mutant (A43V, S96V, Q85R) (human, UniProt O60487 27-150, limits assumed).
T2 construct: Human residues replaced by the mouse ones
T2 chain: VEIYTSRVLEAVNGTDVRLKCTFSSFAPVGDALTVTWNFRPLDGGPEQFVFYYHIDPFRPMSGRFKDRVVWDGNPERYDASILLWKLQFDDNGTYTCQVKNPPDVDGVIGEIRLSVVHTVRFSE
Put plainly: SPR. On the technique in general: In SPR one partner is held on a chip, and binding of the other changes the refractive index at the surface.

Experiment [3] addresses T3, human Eva1 mutant (R33G, V34A, V134L, I135V, E137T) (human, UniProt O60487 27-150, limits assumed).
T3 construct: Human residues replaced by the mouse ones
T3 chain: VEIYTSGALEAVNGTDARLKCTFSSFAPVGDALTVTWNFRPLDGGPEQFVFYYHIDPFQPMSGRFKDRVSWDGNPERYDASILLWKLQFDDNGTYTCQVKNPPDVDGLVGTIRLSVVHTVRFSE
Put plainly: SPR.

Experiment [4] addresses T4, human Eva1 mutant (L68R, P72R) (human, UniProt O60487 27-150, limits assumed).
T4 construct: Human residues replaced by the mouse ones; also called (L68R and P72R) double mutant
T4 chain: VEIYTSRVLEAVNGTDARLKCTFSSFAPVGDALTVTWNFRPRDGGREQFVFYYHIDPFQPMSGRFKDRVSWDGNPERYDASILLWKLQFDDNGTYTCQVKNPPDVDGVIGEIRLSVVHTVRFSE
Put plainly: SPR.

Another experiment deals with T5, human Eva1 mutant (I81M) (human, UniProt O60487 27-150, limits assumed).
T5 construct: Human residue replaced by the mouse one
T5 chain: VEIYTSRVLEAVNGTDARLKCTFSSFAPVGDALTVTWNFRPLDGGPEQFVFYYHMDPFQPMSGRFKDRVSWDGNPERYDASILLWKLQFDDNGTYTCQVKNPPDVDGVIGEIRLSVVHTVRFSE
Briefly: SPR.

The next experiment concerns the target T6, human Eva1 L68R mutant (human, UniProt O60487 27-150, limits assumed).
T6 chain: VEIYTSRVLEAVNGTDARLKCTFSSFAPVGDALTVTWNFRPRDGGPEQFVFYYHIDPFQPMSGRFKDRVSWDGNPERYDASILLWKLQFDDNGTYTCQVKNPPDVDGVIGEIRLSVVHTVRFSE
Briefly: SPR.

For another experiment, the target named is T7, human Eva1 P72R mutant (human, UniProt O60487 27-150, limits assumed).
T7 chain: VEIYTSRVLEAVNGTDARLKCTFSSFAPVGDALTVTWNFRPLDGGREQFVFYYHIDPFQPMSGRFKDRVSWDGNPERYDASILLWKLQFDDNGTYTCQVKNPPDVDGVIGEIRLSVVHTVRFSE
Briefly: SPR.

In another experiment the target is T8, mouse Eva1 protein (mouse, UniProt O70255 27-150, limits assumed).
T8 construct: Used in SPR; also called mouse-derived Eva1 protein; mEva1
T8 sequence: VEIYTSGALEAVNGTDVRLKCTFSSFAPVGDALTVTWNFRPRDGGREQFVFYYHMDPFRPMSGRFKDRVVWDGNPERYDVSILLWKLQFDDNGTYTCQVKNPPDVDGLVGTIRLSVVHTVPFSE
Briefly: SPR.

Experiment [5] deals with T1, human Eva1 protein. Briefly: SPR (Biacore), antibody captured by anti-mouse IgG, Eva1 flowed.
Text: as §1

In experiment [6] the target is T1, human Eva1 protein. Put plainly: SPR.
The next experiment has as its target T9, human Eva1 Y104A mutant (human, UniProt O60487 27-150, limits assumed).
T9 chain: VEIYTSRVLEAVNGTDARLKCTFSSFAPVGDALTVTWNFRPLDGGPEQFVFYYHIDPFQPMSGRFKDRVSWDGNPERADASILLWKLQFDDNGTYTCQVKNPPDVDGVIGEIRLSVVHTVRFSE
Briefly: SPR with alanine mutants.

The target of the next experiment is T10, human Eva1 Y30A mutant (human, UniProt O60487 27-150, limits assumed).
T10 chain: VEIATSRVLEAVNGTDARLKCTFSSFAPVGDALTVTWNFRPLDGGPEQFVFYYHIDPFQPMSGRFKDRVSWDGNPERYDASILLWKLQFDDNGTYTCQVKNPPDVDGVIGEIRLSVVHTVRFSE
Put plainly: SPR.

The target in experiment [7] is T11, human Eva1 mutant with glutamic acid at position 102 substituted with alanine (human, UniProt O60487 27-150, limits assumed).
T11 construct: also called E102A
T11 chain: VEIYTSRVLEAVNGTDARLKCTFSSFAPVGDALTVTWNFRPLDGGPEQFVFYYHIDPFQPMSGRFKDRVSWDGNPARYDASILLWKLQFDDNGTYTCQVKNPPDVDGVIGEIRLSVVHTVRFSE
Put plainly: SPR with alanine mutants.

In experiment [8] the target is T12, human Eva1 mutant with arginine at position 103 substituted with alanine (human, UniProt O60487 27-150, limits assumed).
T12 construct: also called R103A
T12 chain: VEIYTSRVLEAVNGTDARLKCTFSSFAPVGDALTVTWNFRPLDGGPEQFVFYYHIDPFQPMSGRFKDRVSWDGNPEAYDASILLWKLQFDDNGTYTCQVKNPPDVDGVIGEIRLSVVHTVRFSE
Briefly: SPR with alanine mutants.

In another experiment the target is T13, human Eva1 S96A mutant (human, UniProt O60487 27-150, limits assumed).
T13 chain: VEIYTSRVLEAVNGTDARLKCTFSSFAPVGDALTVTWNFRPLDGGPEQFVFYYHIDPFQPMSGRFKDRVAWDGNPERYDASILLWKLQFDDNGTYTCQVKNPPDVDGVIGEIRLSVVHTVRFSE
Briefly: SPR with alanine mutants.

B1: B2E5-48 chimeric antibody (antibody, V domains shown)
VH: QVQLQQPGAELVKPGASVKLSCKASGYTFTNYWMHWVKLRPGQGFEWIGEINPTNGGTDYNEKFKRKATLTVDKSSSTAYMQLSSLTSEDSAVYYCTIYTTALDYWGQGTTLTVSS
VL: QIVLTQSPALMSASPGERVTLTCSASSSVGYMYWYQQKPGSSPKPWIYVTSNLASGVPARFSGSGSGTSYSLTISSMEAEDAATYYCQQWSSNPPTFGAGTKLELK
As usually defined, the Kd is a measure of binding affinity in units of concentration. Higher therefore signals weaker binding. In general, koff refers to a measure of how fast the partners let go of each other. Usually kon stands for the second-order rate constant of association. Read a high kon as faster complex formation. In the experiment with human Eva1 protein [1], B1 displayed a Kd of 15.2 nM, a dissociation rate constant (koff) of 0.00747 s⁻¹ and an association rate constant (kon) of 490000 M⁻¹ s⁻¹.

B2: B2E5-48 mouse antibody (antibody, mouse IgG2b, V domains shown)
VH: QVQLQQPGAELVKPGASVKLSCKASGYTFTNYWMHWVKLRPGQGFEWIGEINPTNGGTDYNEKFKRKATLTVDKSSSTAYMQLSSLTSEDSAVYYCTIYTTALDYWGQGTTLTVSS
VL: QIVLTQSPALMSASPGERVTLTCSASSSVGYMYWYQQKPGSSPKPWIYVTSNLASGVPARFSGSGSGTSYSLTISSMEAEDAATYYCQQWSSNPPTFGAGTKLELK
notes: Mouse monoclonal from a hybridoma; also called B2E5-48 antibody
For the molecule B2, the binding result in [2] was “binds”; in experiment [3] it was “binds”; in [4], “no binding”; in the experiment with human Eva1 mutant (I81M), “binds”; with human Eva1 L68R mutant, “binds”; in the experiment with human Eva1 P72R mutant, “no binding”. The binding result with mouse Eva1 protein was “no binding”. Besides, the Kd with human Eva1 protein [5] was found to be 11.7 nM. In the experiment with human Eva1 protein [5], the koff worked out at 0.00808 s⁻¹. In addition, the kon in the experiment with human Eva1 protein [5] amounted to 689000 M⁻¹ s⁻¹.

B3: C3 mouse antibody (antibody, mouse IgG1, V domains shown)
VH: EVKLVESGGGLVQPGGSLKLSCAASGFTFSSYTMSWVRQTPEKRLEWVAYITTGAGRTYYPDTVKGRFTISRDNAKNTLYLQMSSLKSEDTAMYYCARHRGDYWGQGTSVTVSS
VL: SIVMTQTPKFLLVSAGDRVTITCKASQSVSNDVAWYQQKPGQSPKLLIYYASNRFTGVPDRFTGSGYGTDFTFTISTVQAEDLAVYFCQQDYSSPWTFGGGTKLEIK
notes: Mouse monoclonal from a hybridoma; also called C3 antibody
Consider B3, for which the “KD for human Eva1 against KD for mouse Eva1” value with human Eva1 protein [6] is roughly 0.1. For the same molecule, the binding result in the experiment with human Eva1 Y104A mutant was “binds”. In the experiment with human Eva1 protein [5], the Kd is 9.1 nM, the koff amounted to 0.00831 s⁻¹ and the on-rate constant (kon) was 918000 M⁻¹ s⁻¹.

B4: A5D11-10 mouse antibody (antibody, V domains shown)
VH: EVQLKESGPGLVQPSQSLSITCTVSGFSLTRYGVHWVRQSPGKGLEWLGVIWSGGSTDYNAAFISRLSISKDNSKSQVFFKMNSLQANDTAIYYCARNGYDGGYAMDYWGQGTSVTVSS
VL: DIQMTQTTSSLSASLGDRVTISCRASQDISNYLNWYQQKPDGTVKLLIYYTSRLHSGVPSRFSGSGSRIDYSLTISNLEQEDFATYFCQQSDTLPPWTFGGGTKLEIK
notes: Mouse monoclonal from a hybridoma; also called A5D11-10 antibody
Consider B4, for which the binding result in the experiment with human Eva1 Y30A mutant is on record as “no binding”; with human Eva1 S96A mutant, “binds”. The “fold increase of KD against wild type human Eva1” value in [7] and in experiment [8] was roughly 25 fold each time. Besides, in the experiment with human Eva1 protein [5], the Kd came out at 5.83 nM. In the experiment with human Eva1 protein [5], this molecule came in with a koff of 0.00212 s⁻¹. For the same molecule, the kon with human Eva1 protein [5] is 364000 M⁻¹ s⁻¹.
